# Measured values as given in US20170189519A1.
# Tests used:
# [1] = target: H1-mini2-cluster1+5+6-GCN4 without leader sequence and with FLAG-thrombin-foldon-HIS; assay: ELISA, coated CR6261, P. pastoris culture medium; the reference itself
# [2] = target: H1-mini2-cluster1+5+6-GCN4 without leader sequence and with FLAG-thrombin-foldon-HIS; assay: ELISA, coated CR6261, HEK293F culture medium; the reference itself
# [3] = target: H1-mini2-cluster1+5+6-GCN4 without leader sequence and with FLAG-thrombin-foldon-HIS; assay: ELISA, coated CR6261, P. pastoris culture medium; average of the parental
# [4] = target: H1-mini2-cluster1+5+6-GCN4 without leader sequence and with FLAG-thrombin-foldon-HIS; assay: ELISA, coated CR6261, HEK293F culture medium; average of the parental
substance,measurement,setting,value
CR6261 (antibody),fold increase of ratio over parental SEQ ID NO: 6,[1],1 fold
same,fold increase of ratio over parental SEQ ID NO: 6,[2],1 fold
same,CR6261 binding signal,[3],238000
same,ratio of CR6261 binding signal to HTRF signal,[3],5.94
same,CR6261 binding signal,[4],5.66e+06
same,ratio of CR6261 binding signal to HTRF signal,[4],17.4
